This passage reports Kd results from patent US20210388110A1 (published 2021).

The target in the assay is T1, soluble human CD3ε chain (human, UniProt P07766 23-126, limits assumed).
T1 construct: the text says soluble human CD3ε chain; also called human CD3 epsilon chain
The assay is described as follows: SPR (Biacore). (In SPR one partner is held on a chip, and binding of the other changes the refractive index at the surface.)

T1 sequence (P07766 23-126 limits assumed): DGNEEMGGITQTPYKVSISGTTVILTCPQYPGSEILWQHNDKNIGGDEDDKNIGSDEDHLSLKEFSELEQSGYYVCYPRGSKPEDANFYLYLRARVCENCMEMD

B1: TR01H061-E22Hh/none-Hi-Kn010G3/L0222-k0 (antibody, human IgG1, kappa, L234A L235A, N297A)
heavy: QVQLVESGGGLVQPGRSLRLSCAASGFTFSNAWMHWVRQAPGKGLEWVAQIKDKSQNYATYYAESVKGRFTISRADSKNSIYLQMNSLKTEDTAVYYCRYVHYAASYGVDIWGQGTTVTVSSASTKGPSVFPLAPSSKSTSGGTAALGCLVKDYFPEPVTVSWNSGALTSGVHTFPAVLQSSGLYSLSSVVTVPSSSLGTQTYICNVNHKPSNTKVDKKVEPKSCDKTHTCPPCPAPEAAGGPSVFLFPPKPKDTLMISRTPEVTCVVVDVSHEDPEVKFNWYVDGVEVHNAKTKPREEQYASTYRVVSVLTVLHQDWLNGKEYKCKVSNKALPAPIEKTISKAKGQPREPQVYTLPPSRCELTKNQVSLSCAVKGFYPSDIAVEWESNGQPENNYKTTPPVLDSDGSFFLVSKLTVDKSRWQQGNVFSCSVMHEALHNHYTQKSLSLSPDYKDDDDK
chain: EPKSSDKTHTCPPCPAPELLGGPSVFLFPPKPKDTLMISRTPEVTCVVVDVSHEDPEVKFNWYVDGVEVHNAKTKPREEQYNSTYRVVSVLTVLHQDWLNGKEYKCKVSNKALPAPIEKTISKAKGQPREPQVCTLPPSRDELTKNQVSLWCLVKGFYPSDIAVEWESNGQPENNYKTTPPVLDSDGSFFLYSKLTVDKSRWQQGNVFSCSVMHEALHNRYTQKSLSLSP
light: DIVMTQSPLSLPVTPGEPASISCRSSQSPVHSNRNTYIQWYQQKPGQAPRLLIYKVSNRFSGVPDRFSGSGSGTDFTLKISRVEAEDVGVYYCYQGTQVPYTFGQGTKLEIKRTVAAPSVFIFPPSDEQLKSGTASVVCLLNNFYPREAKVQWKVDNALQSGNSQESVTEQDSKDSTYSLSSTLTLSKADYEKHKVYACEVTHQGLSSPVTKSFNRGEC
notes: single-arm
B1 displayed an equilibrium dissociation constant (Kd) of 0.0188 µM.

B2: TR01H064-E22Hh/none-Hi-Kn010G3/L0000-k0 (antibody, human IgG1, kappa, L234A L235A, N297A)
heavy: QVQLVESGGGLVQPGRSLRLSCSASGFTFSNAWMHWVRQAPGKGLEWVAQIKDKSQNYATYYAESVKGRFTISRADSKNSIYLQMNSLKTEDTAVYYCRYVHYAASYGVDAWGQGTTVTVSSASTKGPSVFPLAPSSKSTSGGTAALGCLVKDYFPEPVTVSWNSGALTSGVHTFPAVLQSSGLYSLSSVVTVPSSSLGTQTYICNVNHKPSNTKVDKKVEPKSCDKTHTCPPCPAPEAAGGPSVFLFPPKPKDTLMISRTPEVTCVVVDVSHEDPEVKFNWYVDGVEVHNAKTKPREEQYASTYRVVSVLTVLHQDWLNGKEYKCKVSNKALPAPIEKTISKAKGQPREPQVYTLPPSRCELTKNQVSLSCAVKGFYPSDIAVEWESNGQPENNYKTTPPVLDSDGSFFLVSKLTVDKSRWQQGNVFSCSVMHEALHNHYTQKSLSLSPDYKDDDDK
chain: EPKSSDKTHTCPPCPAPELLGGPSVFLFPPKPKDTLMISRTPEVTCVVVDVSHEDPEVKFNWYVDGVEVHNAKTKPREEQYNSTYRVVSVLTVLHQDWLNGKEYKCKVSNKALPAPIEKTISKAKGQPREPQVCTLPPSRDELTKNQVSLWCLVKGFYPSDIAVEWESNGQPENNYKTTPPVLDSDGSFFLYSKLTVDKSRWQQGNVFSCSVMHEALHNRYTQKSLSLSP
light: DIVMTQSPLSLPVTPGEPASISCRSSQSLVHSNRNTYLHWYQQKPGQAPRLLIYKVSNRFSGVPDRFSGSGSGTDFTLKISRVEAEDVGVYYCGQGTQVPYTFGQGTKLEIKRTVAAPSVFIFPPSDEQLKSGTASVVCLLNNFYPREAKVQWKVDNALQSGNSQESVTEQDSKDSTYSLSSTLTLSKADYEKHKVYACEVTHQGLSSPVTKSFNRGEC
notes: single-arm
Turning to B2, the Kd turned out to be 0.0307 µM. This Kd lies about 1.6-fold higher than the previous one.

B3: TR01H063-E22Hh/none-Hi-Kn010G3/L0000-k0 (antibody, human IgG1, kappa, L234A L235A, N297A)
heavy: QVQLVESGGGVVQPGGSLRLSCAASGFTFSNAWMHWVRQAPGKGLEWVAQIKDKSQNYATYYAESVKGRFTISRADSKNSIYLQMNSLKTEDTAVYYCRYVHYAASYGVDAWGQGTTVTVSSASTKGPSVFPLAPSSKSTSGGTAALGCLVKDYFPEPVTVSWNSGALTSGVHTFPAVLQSSGLYSLSSVVTVPSSSLGTQTYICNVNHKPSNTKVDKKVEPKSCDKTHTCPPCPAPEAAGGPSVFLFPPKPKDTLMISRTPEVTCVVVDVSHEDPEVKFNWYVDGVEVHNAKTKPREEQYASTYRVVSVLTVLHQDWLNGKEYKCKVSNKALPAPIEKTISKAKGQPREPQVYTLPPSRCELTKNQVSLSCAVKGFYPSDIAVEWESNGQPENNYKTTPPVLDSDGSFFLVSKLTVDKSRWQQGNVFSCSVMHEALHNHYTQKSLSLSPDYKDDDDK
chain: EPKSSDKTHTCPPCPAPELLGGPSVFLFPPKPKDTLMISRTPEVTCVVVDVSHEDPEVKFNWYVDGVEVHNAKTKPREEQYNSTYRVVSVLTVLHQDWLNGKEYKCKVSNKALPAPIEKTISKAKGQPREPQVCTLPPSRDELTKNQVSLWCLVKGFYPSDIAVEWESNGQPENNYKTTPPVLDSDGSFFLYSKLTVDKSRWQQGNVFSCSVMHEALHNRYTQKSLSLSP
light: DIVMTQSPLSLPVTPGEPASISCRSSQSLVHSNRNTYLHWYQQKPGQAPRLLIYKVSNRFSGVPDRFSGSGSGTDFTLKISRVEAEDVGVYYCGQGTQVPYTFGQGTKLEIKRTVAAPSVFIFPPSDEQLKSGTASVVCLLNNFYPREAKVQWKVDNALQSGNSQESVTEQDSKDSTYSLSSTLTLSKADYEKHKVYACEVTHQGLSSPVTKSFNRGEC
notes: single-arm
B3 yielded a Kd of 0.0435 µM. This Kd and that of the molecule before are within 1.5-fold of each other.

B4: TR01H065-E22Hh/none-Hi-Kn010G3/L0000-k0 (antibody, human IgG1, kappa, L234A L235A, N297A)
heavy: QVQLVESGGGLVQPGRSLRLSCAASGFTFSNAWMHWVRQAPGKGLEWVAQIKDKSQNYATYYAESVKGRFTISRDDSKNSIYLQMNSLKTEDTAVYYCRYVHYAASYGVDAWGQGTTVTVSSASTKGPSVFPLAPSSKSTSGGTAALGCLVKDYFPEPVTVSWNSGALTSGVHTFPAVLQSSGLYSLSSVVTVPSSSLGTQTYICNVNHKPSNTKVDKKVEPKSCDKTHTCPPCPAPEAAGGPSVFLFPPKPKDTLMISRTPEVTCVVVDVSHEDPEVKFNWYVDGVEVHNAKTKPREEQYASTYRVVSVLTVLHQDWLNGKEYKCKVSNKALPAPIEKTISKAKGQPREPQVYTLPPSRCELTKNQVSLSCAVKGFYPSDIAVEWESNGQPENNYKTTPPVLDSDGSFFLVSKLTVDKSRWQQGNVFSCSVMHEALHNHYTQKSLSLSPDYKDDDDK
chain: EPKSSDKTHTCPPCPAPELLGGPSVFLFPPKPKDTLMISRTPEVTCVVVDVSHEDPEVKFNWYVDGVEVHNAKTKPREEQYNSTYRVVSVLTVLHQDWLNGKEYKCKVSNKALPAPIEKTISKAKGQPREPQVCTLPPSRDELTKNQVSLWCLVKGFYPSDIAVEWESNGQPENNYKTTPPVLDSDGSFFLYSKLTVDKSRWQQGNVFSCSVMHEALHNRYTQKSLSLSP
light: DIVMTQSPLSLPVTPGEPASISCRSSQSLVHSNRNTYLHWYQQKPGQAPRLLIYKVSNRFSGVPDRFSGSGSGTDFTLKISRVEAEDVGVYYCGQGTQVPYTFGQGTKLEIKRTVAAPSVFIFPPSDEQLKSGTASVVCLLNNFYPREAKVQWKVDNALQSGNSQESVTEQDSKDSTYSLSSTLTLSKADYEKHKVYACEVTHQGLSSPVTKSFNRGEC
notes: single-arm
On to B4, for which the affinity, expressed as Kd, was 0.0431 µM. The Kd values of the last two molecules are within 1.5-fold of each other.

B5: TR01H061-E22Hh/none-Hi-Kn010G3/L0226-k0 (antibody, human IgG1, kappa, L234A L235A, N297A)
heavy: QVQLVESGGGLVQPGRSLRLSCAASGFTFSNAWMHWVRQAPGKGLEWVAQIKDKSQNYATYYAESVKGRFTISRADSKNSIYLQMNSLKTEDTAVYYCRYVHYAASYGVDIWGQGTTVTVSSASTKGPSVFPLAPSSKSTSGGTAALGCLVKDYFPEPVTVSWNSGALTSGVHTFPAVLQSSGLYSLSSVVTVPSSSLGTQTYICNVNHKPSNTKVDKKVEPKSCDKTHTCPPCPAPEAAGGPSVFLFPPKPKDTLMISRTPEVTCVVVDVSHEDPEVKFNWYVDGVEVHNAKTKPREEQYASTYRVVSVLTVLHQDWLNGKEYKCKVSNKALPAPIEKTISKAKGQPREPQVYTLPPSRCELTKNQVSLSCAVKGFYPSDIAVEWESNGQPENNYKTTPPVLDSDGSFFLVSKLTVDKSRWQQGNVFSCSVMHEALHNHYTQKSLSLSPDYKDDDDK
chain: EPKSSDKTHTCPPCPAPELLGGPSVFLFPPKPKDTLMISRTPEVTCVVVDVSHEDPEVKFNWYVDGVEVHNAKTKPREEQYNSTYRVVSVLTVLHQDWLNGKEYKCKVSNKALPAPIEKTISKAKGQPREPQVCTLPPSRDELTKNQVSLWCLVKGFYPSDIAVEWESNGQPENNYKTTPPVLDSDGSFFLYSKLTVDKSRWQQGNVFSCSVMHEALHNRYTQKSLSLSP
light: DIVMTQSPLSLPVTPGEPASISCRSSQSPVHSNRNTYIHWYQQKPGQAPRLLIYKVSNRFSGVPDRFSGSGSGTDFTLKISRVEAEDVGVYYCIQGTQVPYTFGQGTKLEIKRTVAAPSVFIFPPSDEQLKSGTASVVCLLNNFYPREAKVQWKVDNALQSGNSQESVTEQDSKDSTYSLSSTLTLSKADYEKHKVYACEVTHQGLSSPVTKSFNRGEC
notes: single-arm
B5 yielded an equilibrium dissociation constant (Kd) of 0.0471 µM.

B6: TR01H062-E22Hh/none-Hi-Kn010G3/L0000-k0 (antibody, human IgG1, kappa, L234A L235A, N297A)
heavy: QVQLVESGGGLVQPGRSLRLSCAASGFTFSNAWMHWVRQAPGKGLEWVAQIKDKSQNYATYYAESVKGRFTISRADSKNSIYLQMNSLKTEDTAVYYCRYVHYAASYGVDAWGQGTTVTVSSASTKGPSVFPLAPSSKSTSGGTAALGCLVKDYFPEPVTVSWNSGALTSGVHTFPAVLQSSGLYSLSSVVTVPSSSLGTQTYICNVNHKPSNTKVDKKVEPKSCDKTHTCPPCPAPEAAGGPSVFLFPPKPKDTLMISRTPEVTCVVVDVSHEDPEVKFNWYVDGVEVHNAKTKPREEQYASTYRVVSVLTVLHQDWLNGKEYKCKVSNKALPAPIEKTISKAKGQPREPQVYTLPPSRCELTKNQVSLSCAVKGFYPSDIAVEWESNGQPENNYKTTPPVLDSDGSFFLVSKLTVDKSRWQQGNVFSCSVMHEALHNHYTQKSLSLSPDYKDDDDK
chain: EPKSSDKTHTCPPCPAPELLGGPSVFLFPPKPKDTLMISRTPEVTCVVVDVSHEDPEVKFNWYVDGVEVHNAKTKPREEQYNSTYRVVSVLTVLHQDWLNGKEYKCKVSNKALPAPIEKTISKAKGQPREPQVCTLPPSRDELTKNQVSLWCLVKGFYPSDIAVEWESNGQPENNYKTTPPVLDSDGSFFLYSKLTVDKSRWQQGNVFSCSVMHEALHNRYTQKSLSLSP
light: DIVMTQSPLSLPVTPGEPASISCRSSQSLVHSNRNTYLHWYQQKPGQAPRLLIYKVSNRFSGVPDRFSGSGSGTDFTLKISRVEAEDVGVYYCGQGTQVPYTFGQGTKLEIKRTVAAPSVFIFPPSDEQLKSGTASVVCLLNNFYPREAKVQWKVDNALQSGNSQESVTEQDSKDSTYSLSSTLTLSKADYEKHKVYACEVTHQGLSSPVTKSFNRGEC
notes: single-arm
In turn, B6 came in with a Kd of 0.0313 µM.

What is called Kd is the constant that tells how readily two partners part at equilibrium. A low value points to higher affinity.
